Assay results reported in article PMC6996796.
Several values for one entry are separate records, joined by “and”; a condition that tells them apart may be missing. Equal values may be shown once.

Molecular target: branched K11/K48 triubiquitin (Homo sapiens) (UniProt P0CG48)
Test: NMR
Details: modification not given

hHR23A UBA2 UBA2, P54725, sequence (P54725 315-361): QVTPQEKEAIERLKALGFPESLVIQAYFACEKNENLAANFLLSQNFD

Kd: 26 µM and 248 µM
Substance: hHR23A UBA2 UBA2, P54725
